Tested on: MS2 coat protein
Experiment: apparent KD of MS2 coat protein; designed switch direction (-1 OFF switch, 1 ON switch): 1; higher = weaker reporter binding
Method in brief: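 For each design, the apparent KD is the median over clusters of curves fitted to normalised cluster fluorescence. Clusters held RNA switches with common flanks, transcribed on Illumina chips by stalled E. coli RNA polymerase. These were titrated with SNAP-549-labelled MS2 coat protein, doubling from 0.7 or 1.5 nM to 3 µM, without input, with 200 uM small-molecule ligand, or with an oligonucleotide input.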

[1] = input ligand: microRNA oligo, concentration not stated
[2] = Eterna round: R95, input ligand: FMN 200 uM
[3] = Eterna round: R95, input ligand: microRNA oligo, concentration not stated
[4] = Eterna round: R95, input ligand: none

| Sequence | apparent KD of MS2 coat protein (input ligand: FMN 200 uM) | apparent KD of MS2 coat protein [1] | apparent KD of MS2 coat protein (input ligand: none) | apparent KD of MS2 coat protein [2] | apparent KD of MS2 coat protein [3] | apparent KD of MS2 coat protein [4] |
| --- | --- | --- | --- | --- | --- | --- |
| CACGCCUCGGUAGGAUAUGAGGUGCCAUAGGCAACAGCCUAUGGACAUGAGGAUCACCCAUGUCCUCAGAAGGGCCAGGCGUGA [Rexeorar] (Eterna round: R96, puzzle: Same State NG 2) | 0.0259 µM | 0.0663 µM | 0.114 µM |  |  |  |
| ACAUGAGGCGCAGGAUAUACAGUUGUAUAACAUGAGGACAUGACAUGAGGAUCACCCAUGUCCCAGUAGAAGGGCGAACAUGAG [Same State NG2 S2] (Eterna round: R96, puzzle: Same State NG 2) | 0.172 µM | 0.102 µM | 0.144 µM |  |  |  |
| CUGUAUCGCGGAGGAUAUGGGCUGAGACCAGGACAACCCUGGUCAACAUGAGGAUCACCCAUGUCCCAGAAGGCCGCGAUGCUA [Zazalaonor] (Eterna round: R96, puzzle: Same State NG 2) | 0.0161 µM | 0.0973 µM | 0.108 µM |  |  |  |
| GGCAAUAUCACAGGAUAUUGGAAAGGAAGUGUACAAGAAGGGUGAUAGUGCCUCAGCAACAUGAGGAUCACCCAUGUACUGAGC [PowerStrip SSNG 1.29] (Eterna round: R96, puzzle: Same State NG 1) | 0.121 µM | 0.0436 µM | 0.113 µM |  |  |  |
| GGUCCAGCCUGAGCUGGACAAAAGCAUGUACAUGAGGAUCACCCAUGUUCAUGUACAAGCUUUUUGCUCGUCUUAUG [salish99_208a_r3_053] (puzzle: Sensor for hsa-mir-208a) |  |  |  | 0.693 µM | 0.0181 µM | 0.785 µM |
| GUACUCAUGUAAGGAUAUGCAGCCGUUUCGGCUGCAGAAGGUACUAUAAUACAUGAGGAUCACCCAUGUCUCUAUAAUUUAGUG [salish99_SSNG1_r04_901] (Eterna round: R96, puzzle: Same State NG 1) | 0.0706 µM | 0.0345 µM | 0.049 µM |  |  |  |
| GAGGGACAGACCAACAUGAGGAUCACCCAUGUCCUCGCAGGUCAGGAUAUUAUUAGGAUCACCAGUGAGAAGGGACGGUGAAGG (Eterna round: R96, puzzle: Same State NG 3) | 0.366 µM | 0.227 µM | 0.521 µM |  |  |  |
| AUAUAACAUGAGGAUCACCCAUGUCUCUAAAGUCGAGGAUAUGGGCAAAUAAUAUAAGAACCAGAAGGCGAAUUAU [SS1 Teenbexe 4] (puzzle: Same State 1) |  |  |  | 0.143 µM | 0.0341 µM | 0.0793 µM |
| AGCUAUUAAUCAGGAUAUGGUCACAUGAGGAUCACCCAUGUAUAGAUGAUAAAAUGUGGUCUACACUAGAAGGGAUUGCUAACA [SameState NG2 #59] (Eterna round: R96, puzzle: Same State NG 2) | 0.0895 µM | 0.0789 µM | 0.106 µM |  |  |  |
| AGCUAUUACGAAGGAUAUAGUGACAUGAGGAUCACCCAUGUGUACAUGAGUAAUUGUGAUCACGUCUAGAAGGUUGUACUAACA [SameState NG2 #35] (Eterna round: R96, puzzle: Same State NG 2) | 0.181 µM | 0.165 µM | 0.18 µM |  |  |  |
| UAUGACUUACAAGGAUAUUAAUGACAUGAGGAUCACCCAUGUGGCUGUGUAUGUUAGAUAAGCAUUAAGAAGGUGUGCGAGUCU [JR_SSNG2_Sub097] (Eterna round: R96, puzzle: Same State NG 2) | 0.0307 µM | 0.0232 µM | 0.0254 µM |  |  |  |
| UAAUUAAAGCAAGGAUAUCACGUCGAUUAGACGUGAGAAGGUGCUCCUUACAUGAGGAUCACCCAUGUAUAACAUGAAUAAUUA [SSNG1/10-B2] (Eterna round: R96, puzzle: Same State NG 1) | 0.169 µM | 0.522 µM | 0.792 µM |  |  |  |
| UCGGGCGUACUUGCUGACAUGAGGAUCACCCAUGUAAAUGGGAAGGAUAUGGUUCCGUUUCGGUUCCAGAAGGUCCUGGGUGCU [salish99_SSNG3_r04_311] (Eterna round: R96, puzzle: Same State NG 3) | 0.886 µM | 1.14 µM | 1.18 µM |  |  |  |
| UGAAUAGUUACAGGAUAUGAGCCGUAAAUUGGGUCAGAAGGGUGGGUGUUUUGCGCUGUGUGCUACAUGAGGAUCACCCAUGUU [SameState NG1 #33] (Eterna round: R96, puzzle: Same State NG 1) | 0.52 µM | 0.172 µM | 0.24 µM |  |  |  |
